Laboratory results: publication PMC3825537

Biological target: monomeric photosystem II complex (His-tagged PsbE) (Nicotiana tabacum | Nicotiana tabacum (endogenous in leaves)) (UniProt P69384)
Test: native gel or EMSA; BN-PAGE (3-12 % gradient, 205 V, 5 h, 4 °C) of PSII purified by protocol A

**Q.** For “monomeric photosystem II complex (His-tagged PsbE) (from UniProt P69384 1-83; P69556 1-344)”, which stoichiometry N is on record?
**A.** 2
